# Measurements reported in IntAct's records for PubMed 18769030.
# B1: Solute carrier family 12 member 5 (Rattus norvegicus (Rat)), Q63633 (parent)
# chain: MSRRFTVTSLPPAASAASADPESRRHSVADPRRLPREDVKGDGNPKESSPFINSTDTEKGREYDGRNMALFEEEMDTSPMVSSLLSGLANYTNLPQGSKEHEEAENNEGGKKKPVQAPRMGTFMGVYLPCLQNIFGVILFLRLTWVVGIAGIMESFCMVFICCSCTMLTAISMSAIATNGVVPAGGSYYMISRSLGPEFGGAVGLCFYLGTTFAGAMYILGTIEILLAYLFPAMAIFKAEDASGEAAAMLNNMRVYGTCVLTCMATVVFVGVKYVNKFALVFLGCVILSILAIYAGVIKSAFDPPNFPICLLGNRTLSRHGFDVCAKLAWEGNETVTTRLWGLFCSSRLLNATCDEYFTRNNVTEIQGIPGAASGLIKENLWSSYLTKGVIVERRGMPSVGLADGTPVDMDHPYVFSDMTSYFTLLVGIYFPSVTGIMAGSNRSGDLRDAQKSIPTGTILAIATTSAVYISSVVLFGACIEGVVLRDKFGEAVNGNLVVGTLAWPSPWVIVIGSFFSTCGAGLQSLTGAPRLLQAISRDGIVPFLQVFGHGKANGEPTWALLLTACICEIGILIASLDEVAPILSMFFLMCYMFVNLACAVQTLLRTPNWRPRFRYYHWTLSFLGMSLCLALMFICSWYYALVAMLIAGLIYKYIEYRGAEKEWGDGIRGLSLSAARYALLRLEEGPPHTKNWRPQLLVLVRVDQDQNVVHPQLLSLTSQLKAGKGLTIVGSVLEGTFLDNHPQAQRAEESIRRLMEAEKVKGFCQVVISSNLRDGVSHLIQSGGLGGLQHNTVLVGWPRNWRQKEDHQTWRNFIELVRETTAGHLALLVTKNVSMFPGNPERFSEGSIDVWWIVHDGGMLMLLPFLLRHHKVWRKCKMRIFTVAQMDDNSIQMKKDLTTFLYHLRITAEVEVVEMHESDISAYTYEKTLVMEQRSQILKQMHLTKNEREREIQSITDESRGSIRRKNPANTRLRLNVPEETACDNEEKPEEEVQLIHDQSAPSCPSSSPSPGEEPEGEGETDPEKVHLTWTKDKSAAQKNKGPSPVSSEGIKDFFSMKPEWENLNQSNVRRMHTAVRLNEVIVNKSRDAKLVLLNMPGPPRNRNGDENYMEFLEVLTEQLDRVMLVRGGGREVITIYS
# Variants of: B1
# Conditions: with mycb2_mouse Mycbp2, Q7TPH6
# Chain of mycb2_mouse Mycbp2, Q7TPH6 (Q7TPH6 whole entry): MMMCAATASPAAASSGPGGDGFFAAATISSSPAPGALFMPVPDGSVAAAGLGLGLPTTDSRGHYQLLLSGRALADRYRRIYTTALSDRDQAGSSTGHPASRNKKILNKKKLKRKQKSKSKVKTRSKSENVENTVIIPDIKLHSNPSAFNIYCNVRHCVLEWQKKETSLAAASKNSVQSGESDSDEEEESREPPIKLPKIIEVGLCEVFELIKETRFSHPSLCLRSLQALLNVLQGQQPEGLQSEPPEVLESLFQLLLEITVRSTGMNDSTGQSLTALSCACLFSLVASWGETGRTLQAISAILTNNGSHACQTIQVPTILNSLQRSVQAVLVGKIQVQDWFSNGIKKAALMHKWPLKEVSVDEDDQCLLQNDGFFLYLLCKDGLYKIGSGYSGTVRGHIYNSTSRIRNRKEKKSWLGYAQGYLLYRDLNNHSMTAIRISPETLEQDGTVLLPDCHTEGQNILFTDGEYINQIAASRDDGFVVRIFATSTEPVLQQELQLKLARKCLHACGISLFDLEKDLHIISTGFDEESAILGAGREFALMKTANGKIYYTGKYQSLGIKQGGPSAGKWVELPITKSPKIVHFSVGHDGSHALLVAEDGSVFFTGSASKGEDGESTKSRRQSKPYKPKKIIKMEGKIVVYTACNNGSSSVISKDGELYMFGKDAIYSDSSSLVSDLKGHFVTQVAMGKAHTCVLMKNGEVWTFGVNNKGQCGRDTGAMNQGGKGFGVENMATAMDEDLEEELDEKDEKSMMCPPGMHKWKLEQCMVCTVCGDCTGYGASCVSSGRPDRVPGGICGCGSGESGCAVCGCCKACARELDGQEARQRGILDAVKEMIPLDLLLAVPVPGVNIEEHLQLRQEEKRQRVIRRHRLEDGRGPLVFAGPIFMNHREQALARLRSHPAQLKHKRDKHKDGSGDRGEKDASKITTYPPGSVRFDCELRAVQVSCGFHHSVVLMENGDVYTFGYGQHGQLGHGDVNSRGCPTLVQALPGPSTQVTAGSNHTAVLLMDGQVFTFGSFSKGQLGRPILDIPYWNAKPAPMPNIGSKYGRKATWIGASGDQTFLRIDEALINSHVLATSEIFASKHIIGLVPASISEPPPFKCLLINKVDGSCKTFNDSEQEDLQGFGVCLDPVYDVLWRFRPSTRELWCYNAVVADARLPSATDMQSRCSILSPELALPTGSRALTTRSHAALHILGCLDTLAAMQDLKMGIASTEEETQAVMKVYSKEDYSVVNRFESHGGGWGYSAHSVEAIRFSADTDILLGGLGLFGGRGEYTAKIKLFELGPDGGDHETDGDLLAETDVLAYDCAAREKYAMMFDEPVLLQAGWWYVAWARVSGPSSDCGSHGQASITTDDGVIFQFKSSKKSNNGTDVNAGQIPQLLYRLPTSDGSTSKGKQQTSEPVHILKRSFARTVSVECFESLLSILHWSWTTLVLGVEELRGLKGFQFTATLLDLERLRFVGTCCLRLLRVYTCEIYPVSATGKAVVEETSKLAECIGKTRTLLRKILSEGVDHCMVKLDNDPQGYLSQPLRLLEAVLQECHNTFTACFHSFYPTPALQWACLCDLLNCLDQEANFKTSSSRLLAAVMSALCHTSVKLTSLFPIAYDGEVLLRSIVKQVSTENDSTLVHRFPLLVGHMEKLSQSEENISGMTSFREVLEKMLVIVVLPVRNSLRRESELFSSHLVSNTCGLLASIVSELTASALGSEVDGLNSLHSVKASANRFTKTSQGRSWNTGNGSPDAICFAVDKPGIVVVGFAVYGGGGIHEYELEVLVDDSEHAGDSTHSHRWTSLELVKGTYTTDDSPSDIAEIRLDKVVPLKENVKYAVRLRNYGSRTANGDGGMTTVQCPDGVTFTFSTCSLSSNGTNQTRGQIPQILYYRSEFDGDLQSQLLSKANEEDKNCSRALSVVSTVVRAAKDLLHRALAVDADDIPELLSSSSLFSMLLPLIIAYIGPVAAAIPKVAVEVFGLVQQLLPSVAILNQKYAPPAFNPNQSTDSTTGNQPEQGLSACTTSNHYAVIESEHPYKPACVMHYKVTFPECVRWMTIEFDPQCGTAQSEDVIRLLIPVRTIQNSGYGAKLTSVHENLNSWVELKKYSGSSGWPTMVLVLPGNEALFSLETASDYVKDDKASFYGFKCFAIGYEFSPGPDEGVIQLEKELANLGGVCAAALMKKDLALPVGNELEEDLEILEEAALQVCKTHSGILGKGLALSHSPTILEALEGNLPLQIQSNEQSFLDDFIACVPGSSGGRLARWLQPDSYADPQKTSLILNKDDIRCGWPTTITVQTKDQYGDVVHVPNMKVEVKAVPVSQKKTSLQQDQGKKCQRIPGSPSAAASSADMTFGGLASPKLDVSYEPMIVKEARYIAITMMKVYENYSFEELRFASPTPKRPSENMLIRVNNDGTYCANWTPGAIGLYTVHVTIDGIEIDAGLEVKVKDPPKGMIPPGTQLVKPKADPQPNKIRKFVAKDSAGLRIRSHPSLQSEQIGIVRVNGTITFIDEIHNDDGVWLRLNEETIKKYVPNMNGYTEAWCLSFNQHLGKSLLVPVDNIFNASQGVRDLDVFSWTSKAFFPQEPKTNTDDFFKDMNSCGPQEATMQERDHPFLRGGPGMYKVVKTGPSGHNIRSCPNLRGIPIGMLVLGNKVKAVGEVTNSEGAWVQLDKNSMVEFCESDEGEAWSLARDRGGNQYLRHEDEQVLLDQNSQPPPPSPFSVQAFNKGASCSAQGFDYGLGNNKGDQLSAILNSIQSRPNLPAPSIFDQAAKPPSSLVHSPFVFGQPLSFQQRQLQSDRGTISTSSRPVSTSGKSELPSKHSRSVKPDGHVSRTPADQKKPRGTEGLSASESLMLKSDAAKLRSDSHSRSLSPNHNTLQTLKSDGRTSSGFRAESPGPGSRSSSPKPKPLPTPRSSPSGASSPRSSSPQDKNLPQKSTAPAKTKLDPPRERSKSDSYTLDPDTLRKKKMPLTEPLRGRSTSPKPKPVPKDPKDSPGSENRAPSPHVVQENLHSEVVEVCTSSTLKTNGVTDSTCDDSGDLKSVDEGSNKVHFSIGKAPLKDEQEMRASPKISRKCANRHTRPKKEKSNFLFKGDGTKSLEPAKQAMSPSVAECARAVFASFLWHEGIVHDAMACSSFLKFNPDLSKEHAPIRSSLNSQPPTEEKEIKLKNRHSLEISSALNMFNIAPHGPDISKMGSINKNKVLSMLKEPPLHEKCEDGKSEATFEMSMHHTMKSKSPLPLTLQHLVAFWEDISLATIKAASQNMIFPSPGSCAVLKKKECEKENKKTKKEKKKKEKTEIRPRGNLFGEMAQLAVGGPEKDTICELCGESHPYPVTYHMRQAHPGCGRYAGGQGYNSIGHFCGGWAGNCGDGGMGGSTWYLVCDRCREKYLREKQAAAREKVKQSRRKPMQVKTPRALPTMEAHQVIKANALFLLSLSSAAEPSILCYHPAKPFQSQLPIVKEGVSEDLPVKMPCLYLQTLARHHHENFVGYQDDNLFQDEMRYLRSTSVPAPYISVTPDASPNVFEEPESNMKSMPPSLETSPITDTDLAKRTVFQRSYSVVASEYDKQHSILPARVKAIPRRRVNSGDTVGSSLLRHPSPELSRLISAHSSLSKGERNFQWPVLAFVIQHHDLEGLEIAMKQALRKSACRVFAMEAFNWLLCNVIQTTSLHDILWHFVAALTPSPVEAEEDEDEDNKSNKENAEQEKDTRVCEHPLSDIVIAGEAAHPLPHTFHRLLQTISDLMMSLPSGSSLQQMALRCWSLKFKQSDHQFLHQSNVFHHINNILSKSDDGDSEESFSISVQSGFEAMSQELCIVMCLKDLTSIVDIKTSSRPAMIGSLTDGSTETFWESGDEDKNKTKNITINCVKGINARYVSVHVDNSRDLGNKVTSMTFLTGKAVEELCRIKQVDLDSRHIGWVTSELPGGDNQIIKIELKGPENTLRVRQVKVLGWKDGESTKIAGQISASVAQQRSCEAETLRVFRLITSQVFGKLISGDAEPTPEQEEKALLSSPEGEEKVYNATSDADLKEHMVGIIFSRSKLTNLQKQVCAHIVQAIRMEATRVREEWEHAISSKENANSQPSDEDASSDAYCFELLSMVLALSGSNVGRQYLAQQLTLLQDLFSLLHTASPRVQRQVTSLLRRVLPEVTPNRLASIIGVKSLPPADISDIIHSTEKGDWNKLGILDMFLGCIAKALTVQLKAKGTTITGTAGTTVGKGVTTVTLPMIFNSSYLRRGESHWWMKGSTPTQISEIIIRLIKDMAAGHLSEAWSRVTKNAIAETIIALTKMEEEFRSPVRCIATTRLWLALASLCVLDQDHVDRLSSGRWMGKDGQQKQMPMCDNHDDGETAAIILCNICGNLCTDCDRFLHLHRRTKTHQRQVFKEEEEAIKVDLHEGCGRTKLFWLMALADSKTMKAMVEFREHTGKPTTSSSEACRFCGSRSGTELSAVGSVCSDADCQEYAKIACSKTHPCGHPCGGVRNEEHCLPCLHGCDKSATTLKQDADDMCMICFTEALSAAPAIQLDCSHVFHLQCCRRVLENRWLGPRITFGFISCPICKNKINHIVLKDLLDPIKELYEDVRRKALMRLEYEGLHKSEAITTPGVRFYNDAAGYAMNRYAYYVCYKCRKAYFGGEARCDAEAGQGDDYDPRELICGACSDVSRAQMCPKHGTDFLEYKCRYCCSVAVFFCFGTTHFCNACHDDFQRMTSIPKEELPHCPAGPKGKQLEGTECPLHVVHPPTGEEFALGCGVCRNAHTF
row,effect of a mutation on the interaction,Variant
1,disrupting interaction,R1104A
2,disrupting interaction,N1105E

# Variants of: B1
# Conditions: with mycb2_mouse Mycbp2, Q7TPH6
# Remark: another data set of the same source
row,effect of a mutation on the interaction,Variant
1,decreasing interaction,R1104A
